According to patent US20250270343A1 (Alector, published 2025):
Where a chain is given by its changes, count along the chain named.

T1: full-length untagged human GPNMB expressed on cells (human, UniProt Q14956 23-572)
T1 sequence: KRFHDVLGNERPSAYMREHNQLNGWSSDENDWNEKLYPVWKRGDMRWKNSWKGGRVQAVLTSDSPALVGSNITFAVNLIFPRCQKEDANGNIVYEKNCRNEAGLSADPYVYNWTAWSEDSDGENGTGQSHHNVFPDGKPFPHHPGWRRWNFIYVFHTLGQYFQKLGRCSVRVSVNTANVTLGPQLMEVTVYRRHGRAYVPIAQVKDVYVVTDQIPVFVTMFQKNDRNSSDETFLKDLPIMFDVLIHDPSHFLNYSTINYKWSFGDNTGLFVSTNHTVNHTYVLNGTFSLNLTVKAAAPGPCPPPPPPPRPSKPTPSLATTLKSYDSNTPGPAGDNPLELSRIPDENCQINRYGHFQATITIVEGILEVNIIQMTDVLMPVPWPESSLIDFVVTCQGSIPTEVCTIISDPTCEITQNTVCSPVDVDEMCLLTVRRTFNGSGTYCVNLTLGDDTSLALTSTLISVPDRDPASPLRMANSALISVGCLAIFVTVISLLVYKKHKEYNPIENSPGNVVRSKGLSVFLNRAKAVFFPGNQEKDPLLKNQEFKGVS

T2: soluble mouse GPNMB (recombinant extracellular domain) (mouse, UniProt Q99P91 23-502)
T2 construct: also called moGPNMB; not shown: C-terminal polyhistidine or Avi-His tag
T2 sequence: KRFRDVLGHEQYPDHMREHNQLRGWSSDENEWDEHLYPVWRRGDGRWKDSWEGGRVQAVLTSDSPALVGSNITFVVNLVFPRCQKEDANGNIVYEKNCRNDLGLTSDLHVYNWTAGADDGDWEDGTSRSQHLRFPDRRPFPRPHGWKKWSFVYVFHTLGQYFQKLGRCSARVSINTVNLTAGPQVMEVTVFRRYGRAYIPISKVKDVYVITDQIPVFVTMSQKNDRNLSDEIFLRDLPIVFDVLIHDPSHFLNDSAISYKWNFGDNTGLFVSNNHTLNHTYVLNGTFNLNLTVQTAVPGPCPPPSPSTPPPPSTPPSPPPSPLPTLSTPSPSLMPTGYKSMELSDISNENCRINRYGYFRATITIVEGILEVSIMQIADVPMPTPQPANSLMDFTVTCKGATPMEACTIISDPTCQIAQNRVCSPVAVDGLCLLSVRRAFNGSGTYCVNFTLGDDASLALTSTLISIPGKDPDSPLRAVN

T3: soluble mouse GPNMB-Fc polypeptide (mouse IgG2A Fc) (mouse, UniProt Q99P91 23-502)
T3 construct: extracellular domain; bought (R&D System); also called moGPNMB-Fc; mGPNMB-Fc; not shown: Fc region of mouse IgG2A
T3 sequence (looked up): T2 sequence

B1: anti-GPNMB antibody GPN-83 (antibody, V domains shown)
VH: QVQLQESGPGLVKPSETLSLTCTVSGISITTGNYRWSWIRQPPGKGLEWIGYIDYSGTITYNPSLKSRVTITRDTSKNQFSLELSSVTAADTAVYYCARDLTHWYFDVWGQGTLVTVSS
VL: DIVMTQSPDSLAVSLGERATINCKSSRSVDYYGIGFVNWYQQKPGQPPKLLIYATSIQGSGVPDRFSGSGSGTDFTLTISSLQAEDVAVYYCQQQKEVPPTFGGGTKVEIK
B2: anti-GPNMB antibody GPN-86 (antibody, V domains shown)
VH: B1 VH
VL: B1 VL with V37L, I57K
B3: anti-GPNMB antibody GPN-85 (antibody, V domains shown)
VH: B1 VH with S67Q
VL: B1 VL with Y32F, V37L, I57H
B4: anti-GPNMB antibody GPN-90 (antibody, V domains shown)
VH: B1 VH with S67Q
VL: B1 VL with V37L, I57H
B5: anti-GPNMB antibody GPN-87 (antibody, V domains shown)
VH: B1 VH with F106Y
VL: B1 VL with V37L, I57K
B6: anti-GPNMB antibody GPN-89 (antibody, V domains shown)
VH: B1 VH with F106Y
VL: B1 VL with V37L, I57H
B7: anti-GPNMB antibody GPN-52 (antibody, human IgG1, V domains shown)
VH: DVQLQESGPGLVKPSQTVFLTCTVTGISITTGNYRWSWIRQFPGNKLEWIGYIYYSGTITYNPSLTSRITITRDTPKNEFFLEMNSLTAEDTATYYCARDLTHWYFDVWGTGTTVTVSS
VL: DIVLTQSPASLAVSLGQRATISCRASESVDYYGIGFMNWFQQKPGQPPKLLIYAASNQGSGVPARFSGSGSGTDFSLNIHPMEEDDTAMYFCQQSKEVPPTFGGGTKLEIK
notes: chimeric
B8: anti-GPNMB antibody GPN-61 (antibody, human IgG1, V domains shown)
VH: B7 VH with I69T, E79Q, N85S, Y96F, T102R
VL: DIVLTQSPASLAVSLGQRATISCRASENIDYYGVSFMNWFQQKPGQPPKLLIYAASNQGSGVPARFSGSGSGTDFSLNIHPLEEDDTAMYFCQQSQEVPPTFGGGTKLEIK
notes: chimeric
B9: anti-GPNMB antibody GPN-38 (antibody, human IgG1, V domains shown)
VH: QVQLQQPGAELVRPGTSVRLSCKASGYTFTSYWIHWVKQRPGRGLEWIGVIDPSDSYTNYNQQFNVKATLTVDTSSSAAYMQLSSLTSEDSAVYYCARGLITAVNWYFDVWGTGTTVTVSS
VL: DIQMTQSPASLSTSVGEIVTITCRASENIYSYLTWYQQKQGKSPQLLVYNAKTLAEGVPSRFSGSGSGTQFSLKINSLQPEDFGTYYCQHHYGTPLTFGSGTKLEIK
notes: chimeric
B10: anti-GPNMB antibody GPN-41 (antibody, human IgG1, V domains shown)
VH: QLQLQQSGTEVVKPGASVKIPCKASGYAFSSYWMNWVKQRPGKGLEWIGQIYPGDGDTNDNGKFEGKATLTVDKSSNTAYIQLSSLTSEDSAVYFCARSPLHLRGSMDYWGQGTSVTVSS
VL: SIVMTQTPKFLLVSAGDRVTITCKASQSVSNDVAWFQQKPGQSPELLIYSASNRYTGVPDRFTASGYGTDFTFTISAVQAEDLAVYFCQQNYYSPFTFGGGTRLEIK
notes: chimeric
B11: anti-GPNMB antibody GPN-65 (antibody, human IgG1, V domains shown)
VH: B10 VH
VL: B10 VL with A64G, A77T
notes: chimeric
B12: anti-GPNMB antibody GPN-35 (antibody, human IgG1, V domains shown)
VH: EVQLVESGGGSVRPGRSLKLSCAAAGFTFSDYYMTWVRQAPTKGLEWVASINHDGGGTYYRDSVKGRFTISRDNARSSLYLQMDSLRSEDTGTYYCTTRAGWHWGQGVMVTVSS
VL: DIQMTQSPASLSASLGETVSIECLASEDIYNYLTWYQQKPGKSPQVLIYSASGLQDGVPSRFSGSGSGRQYSLKINGLESEDAATYFCLQDSEYPLTFGSGTKLEIK
notes: chimeric
B13: anti-GPNMB antibody GPN-91 (antibody, V domains shown)
VH: B1 VH
VL: B1 VL with V37L, I57H, V98R
B14: anti-GPNMB antibody GPN-88 (antibody, V domains shown)
VH: B1 VH
VL: B1 VL with V37L, I57H, E97H
B15: anti-GPNMB antibody GPN-84 (antibody, V domains shown)
VH: B1 VH with F106Y
VL: B1 VL

target: T1, full-length untagged human GPNMB …; assay: cell-based or functional assay

| Inflammasome: Fold Decrease IL-1β (max response at 0.3 µg/ml) | Binder |
| --- | --- |
| 0.472 fold | B1 |
| 0.404 fold | B2 |
| 0.601 fold | B3 |
| 0.564 fold | B4 |
| 0.428 fold | B5 |
| 0.501 fold | B6 |

target: T1, full-length untagged human GPNMB …; assay: cell-based or functional assay; remark: another data set of the same source

| EC50 GCase | EC50 Lyso Tracker | Fold Decrease Lyso Tracker (max response at 1 µg/ml) | Fold Increase GCase (max response at 1 µg/ml) | Binder |
| --- | --- | --- | --- | --- |
| 834 pM | 1170 pM | 0.755 fold | 1.32 fold | B1 |
| 166 pM | 1200 pM | 0.731 fold | 1.34 fold | B2 |
| 2200 pM | 1390 pM | 0.755 fold | 1.31 fold | B3 |
| 685 pM | 1580 pM | 0.761 fold | 1.37 fold | B4 |
| 767 pM | 1060 pM | 0.716 fold | 1.36 fold | B5 |
| 898 pM | 1180 pM | 0.757 fold | 1.35 fold | B6 |

target: T2, soluble mouse GPNMB (recombinant …); assay: SPR Carterra, Ab immobilized
Method in brief: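 Analyte series of GPNMB extracellular domain (2.5, 7.4, 22, 67, 200, 600 nM) flowed in ascending order, no regeneration, over IgG1 antibodies EDC/NHS-immobilized on an HC200M array. HBS-EP+ plus 0.5 mg/ml BSA as running buffer, two blanks per series. Affinity estimated via high-throughput kinetic fitting.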

| Kd | koff | kon | Binder |
| --- | --- | --- | --- |
| 4600 pM | 0.00082 s⁻¹ | 190000 M⁻¹ s⁻¹ | B7 |
| 2100 pM | 0.00029 s⁻¹ | 130000 M⁻¹ s⁻¹ | B8 |
| 3450 pM | 7.8e-05 s⁻¹ | 23000 M⁻¹ s⁻¹ | B9 |
| 400 pM | 3.7e-05 s⁻¹ | 97000 M⁻¹ s⁻¹ | B10 |
| 500 pM | 5.1e-05 s⁻¹ | 100000 M⁻¹ s⁻¹ | B11 |
| 2100 pM | 0.00012 s⁻¹ | 56000 M⁻¹ s⁻¹ | B12 |

target: T1, full-length untagged human GPNMB …; assay: FACS titration, FS293-huGPNMB+ cells
Description: Affinity matured anti-GPNMB antibodies of the present disclosure were examined to determine their ability to bind human and mouse GPNMB expressed on FS293-huGPNMB+ or B16F10 cells, respectively. Cell-based affinity measurements were performed to ascertain the apparent affinities of anti-GPNMB antibodies to cell-surface expressed GPNMB. Serial dilutions of anti-GPNMB antibodies of the present disclosure were added to 100,000 FS293-huGPNMB+ or B16F10 cells and allowed to achieve binding equilibrium at 4° C. After addition of fluorescently labeled secondary antibody and brief washing steps, MFI values as a function of titrated antibody concentration were recorded via FACS analysis. Equilibrium binding curves were fit using nonlinear regression analysis with Graphpad Prism 6 software.

| EC50 | Binder |
| --- | --- |
| 203 pM | B1 |
| 203 pM | B2 |
| 240 pM | B13 |
| 192 pM | B14 |
| 385 pM | B3 |
| 148 pM | B4 |
| 242 pM | B15 |
| 317 pM | B5 |
| 167 pM | B6 |

target: T3, soluble mouse GPNMB-Fc polypeptide …; assay: FACS, blocking of mGPNMB-Fc binding to SVEC cells
Description: Purified full-length affinity matured, anti-GPNMB antibodies were evaluated for their ability to block binding of mouse GPNMB-Fc to SVEC cells to calculate the ligand blocking potency of each clone. Briefly, 2 μg/ml soluble mGPNMB-Fc (mouse IgG2A Fc) diluted in binding buffer was pre-complexed with increasing concentrations of anti-GPNMB antibody or human IgG1 isotype control in 96-well plates. Subsequently, 100,000 SVEC cells were added per well and incubated on ice for 30 minutes. Soluble GPNMB-Fc bound to cell surface was detected with fluorescent anti-mouse IgG2A secondary antibody and measured on FACSCanto. Curves were fit using nonlinear regression analysis with Graphpad Prism 6 software.

| IC50 | Binder |
| --- | --- |
| 1490 pM | B1 |
| 1260 pM | B2 |
| 640 pM | B13 |
| 625 pM | B14 |
| 1510 pM | B3 |
| 1420 pM | B4 |
| 1440 pM | B15 |
| 980 pM | B5 |
| 1180 pM | B6 |
